Assay results published in US20250026849A1 (ARCELLX, published 2025).
Numbering of substitutions follows the chain as printed.

T1: P26 (human, UniProt P02771 381-609, limits assumed)
T1 construct: also called AFP p26
T1 sequence: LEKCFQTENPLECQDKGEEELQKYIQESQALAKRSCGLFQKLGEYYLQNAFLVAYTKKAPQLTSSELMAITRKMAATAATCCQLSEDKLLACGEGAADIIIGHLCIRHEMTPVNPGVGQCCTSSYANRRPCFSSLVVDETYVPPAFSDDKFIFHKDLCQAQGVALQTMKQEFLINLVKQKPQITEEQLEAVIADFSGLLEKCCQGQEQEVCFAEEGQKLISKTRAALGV

B1: D domain SEQ ID NO: 949 (designed binder)
chain: MGSWTLFKWDLAFIKWQLEALGGSEAELAWFEYEIAAFEDSLQNYKGKGNPEVEALRKEAAAIRDELQAYRHN
B2: D domain SEQ ID NO: 950 (designed binder)
chain: B1 chain with T5I, W9E, Y33T, E34T, A37N, D40S, S41D, N44K
B3: D domain SEQ ID NO: 951 (designed binder)
chain: MGSWYFFKSRLAYIKVYLEALGGSEAELAGFEWEIAHFEEWLQRYKGKGNPEVEALRKEAAAIRDELQAYRHN
B4: D domain SEQ ID NO: 952 (designed binder)
chain: B3 chain with F6I, R10E, Y13W, V16W, G30N, W33V, H37T, E40T, R44G
B5: D domain SEQ ID NO: 953 (designed binder)
chain: MGSWYIFKQELASIKLSLEALGGSEAELAHFEAEIAWFEWWLQWYKGKGNPEVEALRKEAAAIRDELQAYRHN
B6: D domain SEQ ID NO: 954 (designed binder)
chain: MGSWVRFKTELAYIKESLEALGGSEAELAMFESEIAIFEHSLQTYKGKGNPEVEALRKEAAAIRDELQAYRHN
B7: D domain SEQ ID NO: 955 (designed binder)
chain: MGSWYLFKTELAAIKYRLEALGGSEAELASFEYEIAWFEHILQFYKGKGNPEVEALRKEAAAIRDELQAYRHN
B8: D domain SEQ ID NO: 956 (designed binder)
chain: MGSWYWFKYELAEIKWHLEALGGSEAELAHFEHSIAVFESQLQQYKGKGNPEVEALRKEAAAIRDELQAYRHN
B9: D domain SEQ ID NO: 957 (designed binder)
chain: MGSWWVFKKTLAEIKWTLEALGGSEAELAYFEAEIAFFEFILQQYKGKGNPEVEALRKEAAAIRDELQAYRHN
B10: D domain SEQ ID NO: 965 (designed binder)
chain: MGSWTHFKEDLAHIKDRLEALGGSEAELAAFELDIAWFEFMLQYYKGKGNPEVEALRKEAAAIRDELQAYRHN
B11: D domain SEQ ID NO: 958 (designed binder)
chain: MGSWVYFKDHLAEIKSQLEALGGSEAELALFEYDIAWFEFILQYYKGKGNPEVEALRKEAAAIRDELQAYRHN
B12: D domain SEQ ID NO: 959 (designed binder)
chain: B11 chain with D9H, H10R, S16D, L30E, Y33T, F40W, I41M
B13: D domain SEQ ID NO: 963 (designed binder)
chain: B10 chain with T5L, H6A, D16S, R17I, A30E, L33H, F40Y
B14: D domain SEQ ID NO: 964 (designed binder)
chain: B10 chain with T5F, H6V, H13G, D16F, R17I, A30M, L33T, F40Y
B15: D domain SEQ ID NO: 966 (designed binder)
chain: B10 chain with T5Y, H6Y, D10R, H13A, A30I, L33A
B16: D domain SEQ ID NO: 960 (designed binder)
chain: B10 chain with T5I, H6I, E9T, H13R, D16N, R17Y, A30T, L33R, Y44I
B17: D domain SEQ ID NO: 972 (designed binder)
chain: B10 chain with T5S, H6I, E9Q, H13D, R17S, A30M, L33M, F40H, M41T
B18: D domain SEQ ID NO: 961 (designed binder)
chain: B10 chain with T5M, E9Q, H13E, D16G, R17Y, A30I, L33M, F40Y
B19: D domain SEQ ID NO: 962 (designed binder)
chain: B10 chain with T5Q, H6I, E9Q, H13A, R17Y, A30I, L33F, F40H, Y44W
B20: D domain SEQ ID NO: 969 (designed binder)
chain: B10 chain with T5V, H6L, E9Q, H13M, D16Q, A30M, L33Y, F40H
B21: D domain SEQ ID NO: 970 (designed binder)
chain: MGSWVEFKRDLANIKQRLEALGGSEAELAQFEMQIAWFEHTLQYYKGKGNPEVEALRKEAAAIRDELQAYRHN
B22: D domain SEQ ID NO: 971 (designed binder)
chain: B21 chain with V5S, E6Y, R9E, Q16S, R17S, Q30W, M33S, Q34S
B23: D domain SEQ ID NO: 974 (designed binder)
chain: B10 chain with T5S, H6I, E9D, H13V, D16E, A30H, L33Q, F40H, M41L
B24: D domain SEQ ID NO: 967 (designed binder)
chain: B10 chain with T5Y, H6T, E9G, D10S, H13E, D16N, A30M, L33S, Y44F
B25: D domain SEQ ID NO: 968 (designed binder)
chain: B10 chain with T5F, H6T, E9D, H13Q, D16N, A30N, L33M, D34S
B26: D domain SEQ ID NO: 973 (designed binder)
chain: B10 chain with T5E, H6I, E9D, H13S, D16K, R17V, A30L, L33S, F40L
B27: D domain SEQ ID NO: 975 (designed binder)
chain: B10 chain with T5S, H6V, E9D, H13Q, A30Q, F40Y, M41V, Y44F
B28: D domain SEQ ID NO: 976 (designed binder)
chain: MGSWAVFKDSLAHIKDVLEALGGSEAELALFEMDIAWFEYVLQDYKGKGNPEVEALRKEAAAIRDELQAYRHN
B29: D domain SEQ ID NO: 977 (designed binder)
chain: MGSWIAFKDHLAIIKQRLEALGGSEAELARFEFEIAWFEWMLQYYKGKGNPEVEALRKEAAAIRDELQAYRHN
B30: D domain SEQ ID NO: 978 (designed binder)
chain: MGSWIHFKNDLAVIKDELEALGGSEAELARFEIMIAWFEDALQWYKGKGNPEVEALRKEAAAIRDELQAYRHN
B31: D domain SEQ ID NO: 979 (designed binder)
chain: MGSWMVFKQDLAEIKANLEALGGSEAELADFEFAIAWFEYELQWYKGKGNPEVEALRKEAAAIRDELQAYRHN
B32: D domain SEQ ID NO: 980 (designed binder)
chain: MGSWKNFKLELALIKSKLEALGGSEAELAQFEADIAFFEWSLQWYKGKGNPEVEALRKEAAAIRDELQAYRHN
B33: D domain SEQ ID NO: 981 (designed binder)
chain: MGSWHSFKQDLAYIKYLLEALGGSEAELAQFEELIAFFEYYLQTYKGKGNPEVEALRKEAAAIRDELQAYRHN
B34: D domain SEQ ID NO: 982 (designed binder)
chain: MGSWVVFKSSLAQIKILLEALGGSEAELAIFEVKIAHFEQELQEYKGKGNPEVEALRKEAAAIRDELQAYRHN
B35: D domain SEQ ID NO: 983 (designed binder)
chain: B34 chain with V5D, V6Q, S9N, Q13S, I16R, L17V, Q40H, E41F, E44Q
B36: D domain SEQ ID NO: 984 (designed binder)
chain: MGSWNNFKSSLASIKQVLEALGGSEAELAVFELQIAHFERELQYYKGKGNPEVEALRKEAAAIRDELQAYRHN

Biological target: T1, P26
Experiment: ELISA, format not described
Design: unit not given here

Row | Binder | ELISA_avg
1 | B1 | 12.1
2 | B2 | 23.3
3 | B3 | 30.1
4 | B4 | 29.6
5 | B5 | 19.4
6 | B6 | 20.5
7 | B7 | 20.1
8 | B8 | 21.5
9 | B9 | 18.6
10 | B10 | 30.4
11 | B11 | 22.1
12 | B12 | 11.1
13 | B13 | 18.6
14 | B14 | 14.2
15 | B15 | 31.5
16 | B16 | 16.7
17 | B17 | 16.6
18 | B18 | 18.9

Row | Binder | ELISA_avg
19 | B19 | 17.4
20 | B20 | 29.7
21 | B21 | 30.4
22 | B22 | 11.6
23 | B23 | 25.6
24 | B24 | 32.3
25 | B25 | 30.8
26 | B26 | 27.9
27 | B27 | 30.3
28 | B28 | 24.1
29 | B29 | 29.9
30 | B30 | 17.9
31 | B31 | 17.8
32 | B32 | 20.6
33 | B33 | 25.6
34 | B34 | 8.6
35 | B35 | 15.6
36 | B36 | 24.1
